Two substances from US20130004493A1 can be followed below.

The target in experiment [1] is Focal adhesion kinase (FAK), human (human) (UniProt Q05397). Description: immunoprecipitation from ARPE-19 and ARPE-19/EMP2 lysates, Western blot densitometry.
For experiment [2] the target is unchanged. Description: cell-based or functional assay.
For experiment [3] the target is unchanged. The experiment is described as follows: co-immunoprecipitation, Western blot for FAK, ARPE-19 cells (figure legend).
Experiment [4] shares this target. Description: co-immunoprecipitation with anti-EMP2 antibody, Western blot densitometry, ARPE-19 cells.
Experiment [5] shares this target. Description: co-immunoprecipitation with anti-EMP2 antibody, Western blot densitometry, ARPE-19/EMP2 cells.
For experiment [6] the target is unchanged. Description: co-immunoprecipitation, ratio of co-immunoprecipitate to cognate immunoprecipitate, ARPE-19 cells.
Experiment [7] has the same target. The experiment is described as follows: co-immunoprecipitation, ratio of co-immunoprecipitate to cognate immunoprecipitate, ARPE-19/EMP2 cells.

Sequence of Focal adhesion kinase (FAK), human (human) (Q05397 2-1052): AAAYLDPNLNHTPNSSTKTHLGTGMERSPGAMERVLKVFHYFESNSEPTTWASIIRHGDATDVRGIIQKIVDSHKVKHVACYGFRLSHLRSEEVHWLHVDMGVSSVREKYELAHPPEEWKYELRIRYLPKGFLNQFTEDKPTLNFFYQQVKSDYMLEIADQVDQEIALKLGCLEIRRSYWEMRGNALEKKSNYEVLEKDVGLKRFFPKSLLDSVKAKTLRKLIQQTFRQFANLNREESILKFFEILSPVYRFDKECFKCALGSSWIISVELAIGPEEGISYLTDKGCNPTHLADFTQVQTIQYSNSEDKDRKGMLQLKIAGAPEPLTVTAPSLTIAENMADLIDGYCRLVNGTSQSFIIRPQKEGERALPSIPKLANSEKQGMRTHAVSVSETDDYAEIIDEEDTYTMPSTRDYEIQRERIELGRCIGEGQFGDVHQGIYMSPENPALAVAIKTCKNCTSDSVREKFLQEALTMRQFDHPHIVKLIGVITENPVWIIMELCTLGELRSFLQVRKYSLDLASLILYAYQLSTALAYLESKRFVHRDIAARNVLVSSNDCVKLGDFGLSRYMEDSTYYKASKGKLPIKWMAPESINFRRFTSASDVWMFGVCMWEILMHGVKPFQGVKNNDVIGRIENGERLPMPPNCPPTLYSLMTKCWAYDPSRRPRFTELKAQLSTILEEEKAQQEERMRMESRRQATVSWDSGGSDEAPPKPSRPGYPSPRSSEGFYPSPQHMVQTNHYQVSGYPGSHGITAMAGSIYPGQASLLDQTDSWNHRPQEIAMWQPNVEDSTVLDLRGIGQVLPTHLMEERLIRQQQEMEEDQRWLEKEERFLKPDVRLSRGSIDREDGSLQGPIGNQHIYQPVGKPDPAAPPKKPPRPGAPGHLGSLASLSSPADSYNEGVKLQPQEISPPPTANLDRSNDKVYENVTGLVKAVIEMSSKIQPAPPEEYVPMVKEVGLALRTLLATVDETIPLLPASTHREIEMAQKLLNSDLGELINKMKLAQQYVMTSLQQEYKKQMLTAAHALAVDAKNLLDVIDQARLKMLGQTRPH

For the substance “Anti-FAK polyclonal antibody (Santa Cruz Biotechnology, clone C-20)”, the cognate immunoprecipitation efficiency in experiment [1] lay within 50 to 60%.

In experiment [2], “Epithelial membrane protein 2 (EMP2), human (from UniProt P54851 1-167)” yielded a percent of FAK at the cell surface contacting the glass slide colocalized with EMP2 (confocal microscopy, ARPE-19/EMP2 cells) of 96%. Moreover, the percent of FAK at the cell surface contacting the glass slide colocalized with EMP2 (confocal microscopy, ARPE-19 cells) in experiment [2] turned out to be 68%. The percent of total FAK co-immunoprecipitated by EMP2 in experiment [3] was 25%. Also, the level of FAK in the EMP2 immunoprecipitates in experiment [4] amounted to 12%; in experiment [5] it was 15%. Besides, the percent of total FAK associated with EMP2 was 24% in experiment [6] and 30% in experiment [7].
